Source: the Human Domainome abundance scans (Beltran et al. 2025)

B1: Storkhead-box protein 2, residues 64 to 141; numbered along this chain, Q9P2F5 (parent)
chain: SPISQSQFIPLGEILCLAISAMNSARKPVTQEALMEHLTTCFPGVPTPSQEILRHTLNTLVRERKIYPTPDGYFIVTP

Variants of: B1
Test: abundance fitness (aPCA) (normalised: wild type 0, dead -1); higher = more abundant; growth selection in yeast, the domain comes from the species named
Details: Homo sapiens

Abundance fitness: each site, then its substitutions
I66: G -0.894; V -0.041; W -0.847; D -1.02; L -0.05; R -1.17; C 0.016; A -0.173; Y -0.971; F -0.937; T -0.38; Q -1.01; E -1.08; H -1; M -0.249
Y73: E -0.089; D -0.136; I -0.261
T69: I -0.298; A -0.028; R -0.015; M -0.148; V -0.13; N -0.042; P -0.703; G -0.003; K -0.249; D -0.04; L -0.195; E -0.095; W -0.362; Y -0.358; Q -0.036; H -0.071
R64: D -0.029; G 0.031; K 0.061; L -0.124; F -0.286; S -0.021; V -0.22; P -1.09; C -0.128; W -0.211; A -0.029; Y -0.174; H 0.039; N -0.043; Q -0.043; E 0.112; M -0.138; I -0.619
T56: Q -0.045; M 0.058; C -0.056; S -0.005; K -0.052; A -0.046; G -0.051; D -0.069; P -1.03; L 0.054; V -0.042; W -0.022; F -0.036; Y -0.26; E -0.087
R54: G 0.057; M 0; L -0.011; V -0.012; S 0.015; A 0.015; F -0.082; Y -0.117; K -0.027; I -0.037; H -0.367; C -0.193; E 0.013; D -0.365; P -0.401; W -0.285; N 0.012; Q 0.066
E63: A -0.019; R -0.015; Y -0.033; M -0.051; G -0.054; D -0.004; S -0.018; I -0.234; V -0.049; W -0.075; P -1.2; K 0.011; H -0.006; T -0.049; C -0.043; N -0.028
G72: L -0.461; K -0.272; H -0.293; V -0.568; S -0.121; I -0.613; R -0.32; D -0.033; T -0.132; M -0.209; Q -0.034; E -0.078; N -0.16; Y -0.527; A -0.304; P -0.614; C -0.383; W -0.662
P70: G -0.027; D 0.091; M -0.097; Q 0.034; S 0.016; E -0.004; C -0.051; W -0.141; N 0.036; Y -0.061; A 0.023; V 0.011; H -0.143; R 0.05; I 0.021; T 0.037; K 0.041; F -0.081
L57: G -1.01; I -0.04; T -0.193; F -0.306; M -0.066; Q -0.924; K -0.953; D -0.793; P -1.22; E -0.784; W -0.269; A -0.576; H -1.1; C -0.202; R -1.11; S -0.799
R62: G -0.008; T 0.053; L -0.037; M 0.045; D -0.05; H -0.051; E 0.017; K -0.109; C -0.047; I 0.006; A 0.049; W -0.081; P -0.944; Y 0.076
Y67: K 0.083; M 0.102; F -0.021; V -0.02; T -0.05; P -0.566; A 0.03; C 0.039; R 0.022; H -0.006; N -0.06; I 0.02; G -0.053; Q -0.017; S 0.001; L -0.029; W -0.049
V61: N -0.432; C 0.04; P -1.05; H -0.122; K -0.146; M 0.052; T 0.019; S -0.008; L -0.05; A 0.029; F -0.166; Q -0.013; E -0.028; I -0.014; Y -0.208; D -0.186
D71: M -0.054; I -0.313; Y -0.243; N -0.012; W -0.189; R -0.088; A -0.002; C -0.154; H 0.031; T 0.004; F -0.099; K 0.073; S -0.05; P -0.223; V -0.022; G 0.018; Q -0.054; E -0.005
K65: M -0.171; L -0.06; Q 0.078; Y -0.154; G -0.541; I -0.21; P -0.967; W -0.209; D -0.443; A -0.134; C -0.208; N -0.493; F -0.084; R -0.031; V 0; T -0.03; H 0.013; S -0.082; E -0.167
L53: Y -0.108; S -0.586; R -0.913; V -0.003; P -1.11; M 0.019; Q -0.491; T 0.026; K -0.943; W -0.141
T59: W 0.062; H 0.049; G 0.015; A 0.017; K -0.047; E 0.049; D -0.016; F 0.018; Q -0.031; N -0.087; P -0.921; L 0.067; R -0.001; S 0.104; V 0.035; C 0.122; I 0.029; M -0.023
P68: I -0.046; Y -0.141; H 0.051; F -0.014; L 0.017; D -0.042; T 0.04; S 0.059; M -0.038; V 0.082; A 0.065; N 0.009; G -0.003; W -0.057; K -0.082; R 0; C 0.044
H55: D 0.07; L -0.088; Y -0.181; G 0.06; I -0.103; N 0.109; T 0.065; V -0.035; R -0.055; E 0.028; S -0.005; F -0.057; K 0.007; P -0.223; W -0.087; A 0.007; C -0.033
L60: T -0.87; E -0.835; M -0.126; F -0.401; H -0.719; R -1.07; C -0.107; P -1.07; N -0.927; G -0.706; S -0.828; Q -0.342; W -0.525; Y -0.666; I -0.384; A -0.213; V -0.587
N58: L -0.025; K -0.071; D -0.005; Y -0.203; V 0.002; A 0.033; R -0.016; P -0.678; H 0.017; F -0.172; C -0.052; T -0.018; Q -0.03; G 0; E 0.001; W -0.093; I -0.041; S -0.03
